Starred links: 1 amine or outer side, 2 acyl side, 3 side chain; linkers in the order of their positions; H or OH if unused. Positions of bridges follow the written chain, without caps; N, C: chain ends. NH(CH2)3(OCH2CH2)2O(CH2)3NH = C(CN[*:1])COCCOCCOCCCN[*:2]
Assays:
Experiment in all cases: ELISA; biotinylated BACE020 on plate-coated BACE1 ECD mutant; ratio to WT
[1] = biological target: T1, human BACE1 ECD (22-457) W176A, His8 (human, UniProt P56817 22-457)
T1 construct: also called W176A (115)
T1 sequence (P56817 other isoform, or with tags, fused parts or gaps W176A W176A): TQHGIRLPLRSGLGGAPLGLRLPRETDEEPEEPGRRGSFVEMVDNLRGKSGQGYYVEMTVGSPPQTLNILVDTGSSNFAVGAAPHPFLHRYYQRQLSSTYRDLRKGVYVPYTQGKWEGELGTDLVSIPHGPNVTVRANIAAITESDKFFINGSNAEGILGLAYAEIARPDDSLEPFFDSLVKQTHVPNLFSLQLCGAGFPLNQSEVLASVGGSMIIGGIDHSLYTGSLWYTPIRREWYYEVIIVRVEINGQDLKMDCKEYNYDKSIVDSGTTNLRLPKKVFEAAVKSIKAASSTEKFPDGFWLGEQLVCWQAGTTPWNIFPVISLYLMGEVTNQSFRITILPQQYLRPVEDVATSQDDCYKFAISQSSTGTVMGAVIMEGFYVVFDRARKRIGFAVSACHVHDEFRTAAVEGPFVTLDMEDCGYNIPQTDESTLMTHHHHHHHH
Procedure: (§1) Maxisorp microtiter plates (Nalge Nunc International, Rochester, N.Y.) were coated overnight at 4° C. with 2 μg/ml BACE1 mutant in 50 mM carbonate, pH 9.6. The coated wells were washed with buffer (PBS, 0.05% Polysorbate 20) and blocked with assay buffer (PBS, pH 7.4, 0.5% BSA, 0.05% Tween 20, 15 ppm Proclin) for 1 h at room temperature with gentle shaking. […] After washing, the amount of peptide bound to the plate was detected by the addition of Streptavidin-Horseradish Peroxidase Conjugate (GE Healthcare, Piscataway, N.J.) followed by the addition of TMB/H₂O₂ substrate (KPL, Gaithersburg, Md.). The reaction was quenched with 1 M phosphoric acid and the A₄₅₀ measured on a Molecular Devices SpectraMax Plus384 microplate reader. Concentrations to give half maximal effective concentration (EC₅₀) were determined using a 4-parameter non-linear regression curve-fitting program with Kaleidagraph (Synergy Software, Reading, Pa.). […] Concentrations to give half maximal inhibition concentration (IC₅₀) were determined using a 4-parameter non-linear regression curve-fitting program with Kaleidagraph.
(§2) The fold decrease in binding affinity was determined as the relative EC₅₀ values of EC₅₀ (mut)/EC₅₀ (WT), which are listed in Table 3.

[2] = biological target: T2, human BACE1 ECD (22-457) S96A, His8 (human, UniProt P56817 22-457)
T2 construct: also called S96A (35)
T2 sequence (P56817 other isoform, or with tags, fused parts or gaps S96A S96A): as the sequence (P56817 other isoform, or with tags, fused parts or gaps W176A W176A) above, with S75A, A155W counted along it
Procedure: as §1, §2

[3] = biological target: human BACE1 ECD (22-457) R189A, His8 (human, UniProt P56817 22-457)
Sequence of human BACE1 ECD (22-457) R189A, His8 (P56817 other isoform, or with tags, fused parts or gaps R189A R189A): as the sequence (P56817 other isoform, or with tags, fused parts or gaps W176A W176A) above, with A155W, R168A counted along it
Procedure: as §1, §2

[4] = biological target: T3, human BACE1 ECD (22-457) T292A, His8 (human, UniProt P56817 22-457)
T3 construct: also called T292A (231)
T3 sequence (P56817 other isoform, or with tags, fused parts or gaps T292A T292A): as the sequence (P56817 other isoform, or with tags, fused parts or gaps W176A W176A) above, with A155W, T271A counted along it
Procedure: as §1, §2

[5] = biological target: T4, human BACE1 ECD (22-457) F169A, His8 (human, UniProt P56817 22-457)
T4 construct: also called F169A (108)
T4 sequence (P56817 other isoform, or with tags, fused parts or gaps F169A F169A): as the sequence (P56817 other isoform, or with tags, fused parts or gaps W176A W176A) above, with F148A, A155W counted along it
Procedure: as §1, §2

[6] = biological target: T5, human BACE1 ECD (22-457) D93A, His8 (human, UniProt P56817 22-457)
T5 construct: also called D93A (32)
T5 sequence (P56817 other isoform, or with tags, fused parts or gaps D93A D93A): as the sequence (P56817 other isoform, or with tags, fused parts or gaps W176A W176A) above, with D72A, A155W counted along it
Procedure: as §1, §2

[7] = biological target: T6, human BACE1 ECD (22-457) K168A, His8 (human, UniProt P56817 22-457)
T6 construct: also called K168A (107)
T6 sequence (P56817 other isoform, or with tags, fused parts or gaps K168A K168A): as the sequence (P56817 other isoform, or with tags, fused parts or gaps W176A W176A) above, with K147A, A155W counted along it
Procedure: as §1, §2

- Fold Decrease in Binding EC50 (Mut)/EC50 (WT) [1]: 690 fold
- Fold Decrease in Binding EC50 (Mut)/EC50 (WT) [2]: 1 fold
- Fold Decrease in Binding EC50 (Mut)/EC50 (WT) [3]: 2.7 fold
- Fold Decrease in Binding EC50 (Mut)/EC50 (WT) [4]: 73.6 fold
- Fold Decrease in Binding EC50 (Mut)/EC50 (WT) [5]: 1.9 fold
- Fold Decrease in Binding EC50 (Mut)/EC50 (WT) [6]: 568 fold
- Fold Decrease in Binding EC50 (Mut)/EC50 (WT) [7]: 1 fold
B1: biotinylated BACE020 (Ac-NEESMYCRLLGIGCG-(PEG)3-biotin) (peptide)
peptide: Ac-NEESMYCRLLGIGCG-{NH(CH2)3(OCH2CH2)2O(CH2)3NH-biotin}
modifications: disulfide 7-14
notes: also called C-terminal biotin tagged BACE020 peptide

From patent US20140228277A1 (Genentech, published 2014)
